According to a protein production outcome set (Wang et al. 2014):

Test: label from the status in PepcDB records
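Note: failed if final PepcDB status was selected cloned or expressed and not failed if soluble or beyond.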

MKKQFLFLLLAVILLSSCATATLSEFPGVGRVKQYDFYSYDIPPAFDGFRIGFASDFHYESRFKRSELNSAVRALKSMHADVLLLGGDYRGKKGGNLDTLFTALSRVYTPYGTFAVMGNHDYGYCYSEVVEAMQKNHVRLMEHKSYKLMKDGQYIIVSGVRNPFDLKKNGDSPSQHFPADDFIILLTHTPDYAEDTDVSNANLVLAGHTHGGQVSLFKKYSPVKHSIYGNRFLTGWKENSKGTPIIITNGLGTSRVDVRLFTPSEVVLVVLHRVEKQKE
protein production: failed

MEYRITGKGVEISEAIKNYLEKRLDKIDRVIYDDDLVSFNVRIEKDGKNQYVVKFNMNLKGNIINVEERHPDIYTAIDFASDALEKQVKRLKERLKNHPHRSSALVETPLEEPGEFSPSDKVSSVKRVSLLNLDLDEAVMQMDELNHRFLVFRNVNTGEINLLYRDENGDIHLIEMAE
protein production: failed

MLRKKHFSWMLVILILIAVLSFIKLPYYITKPGEATELASLIKVEGGYPEKGSLSLMTVKVGPANPFTYVWAKMHPYYEIVPDESIKEEGESDKEYMKRQLQMMKSSQENAVIAAYQKAGKKVSYSFNGIYASSVVENMPAKGKIEVGDKIISADGKNYQSAEKLIDYISSKKAGDKVTLKIEREEKEKRVTLTLKQFPDEPDRAGIGVSLYTDRNVKVEPDIDFEIENIGGPSAGLMMSLEIYNQLTKPDETKGYDIAGTGTIDVDGKVGPIGGIDQKVVAADKAGKDIFFAPNQNGASNSDYKNAVKTAKDIDSNMKIVPVDTMQDAIDYLNKLKAKQPDSQVLFLYI
protein production: failed

MAKIDALAPQYSRIILLGHSAGGMIVRDAYLLAAGAYLDQPSRGAWWSKVESVLLFASINRGFRPYATATWALGMALMKLVSLQWLLLKPPSWFTLGWLMELEKGSFFVTDLRLSWMRHFHERDDEHRPFVVQFLGDIDGVVAREDVRDTEAFANSYTVTIEGADHSNLFDPAAPPGAAGFMRIMEVFRNPDPQLHEPEQAGELPATGPGRVVFVLHGIRDGNSGWVTDIAEAIEQQAKSDGQGKPLAAACSGHESPVLVDRSTYGWFSAIKFALPWVRRGNLAWFLDRYSYHVARNPDVQFHFVGHSNGTYILGTSLLEVSSLKFDRVYLAGSVLPREFPWQRMMLRRQVATVANQCSSEDWPVGGLCRGLHLIGFRDVGTGGVDGFDELRDLPTQPQTLWFKGDHGKPLQRPNQPNIVNYVLASHIATPLLSAPTGADLCERPSFWFRARMYGFALLTALGVGAAFYGAWWGFTHDHEGLVIAGILLLYFVLNTI
protein production: failed

LKVLTNKASVMLFMKGNKQEAKCGFSKQILEILNSTGVEYETFDILEDEEVRQGLKTFSNWPTYPQLYVRGDLVGGLDIVKELKDNGELLPILKGE
protein production: not failed

MDIKEIDQSSVITPDGQRISFILITPVNMSVLSDEVVAGRISALANILTSIENLQILCLNASQSYEKNKEHLAAQMKTETNEVLAELDRKDIEYLDDIRISMATGREFAFAVRFKKNIGRPQQEQTLKRLLLILLEAGFTARIAEEQELKGILAIYFAQDIYNDYWPDFDGEEILSPAEAKQEKSFLELIAPSIIDFRRQRYYVCGNTQRTVWAVRGYPTTTKDQTIFRELGEKDGVTLHIYTRPVGSYETNKILERAERRNRHMLNNSSRIKEKVEAESNMQDVQLLIENMHRSKEPFLHCAVFIEMAAGNDKALELLQGDVAAILNRHKILYDKLFLQQKEGMISAMPTGQNLFENQFERVLPASSVANMFPFSYSGKTDPQGMYIGRDANGSNIIVNFDQRGQDKTNGHIIILGNSGEGKSFLLKILSCIFRQSRKNLYILDPENEYKELTEALGGTYMDMMTGKYIINPLEPRLWNQEPVSELESPDTPKAFFKPLRINQHIAFLRDFFSAYKPFPTEQLDTLEIMLELLYKEFHITEETDYSRLRSSDYPILTDLYKLMTRELENYEEKAETGLVVYRKETLRELCLGLHGICTGAESVYFNGYTNIPNAKHIDFGVKDMLSTNQSLSNAMYFNILSFMSHKFLTEGDTNICCDELHELLKNRIAISYLLSFIKRGRKRGSNVILASQNVSDFFLPEIVEYTKPLLSIPTHRFLFYPGSCDTEEYKRVLGVSDSEYRVIQNPNRGHCLYSCGNERYHLHVIAPKYKKALFGTAGGALEHHHHHH
protein production: failed

MESITEWDLGSLRTYYSVEPSENFQEDEFLDFNLVPCLQTELWKAQTRIKELEAEKFKSEETIRCLIRNQRNEKEETTNPFVDYLKEKLSKEREEKKRVKAENSRLKKKILDMESSVNRLRRERDTMEKVCEELVTRIDELKVNTRRVWDETEEERQMLQMAEMWREERVRVKFMDAKLALQEKYEEMNLFVVELEKCLETAREVGGIEEKRLRHGEGLIKMAKSMEVVDSKIDFERFEFVSDEGNV
protein production: failed

MDALLTKFNEDRSLQDENLSQPRTRVRIVDDNLYNKSNPFQLCYKKRDYGSQYYHIYQYRLKTFRERVLKECDKRWDAGFTLNGQLVLKKDKVLDIQGNQPCWCVGSIYCEMKYKPNVLDEVINDTYGAPDLTKSYTDKEGGSDEIMLEDESGRVLLVGDFIRSTPFITGVVVGILGMEAEAGTFQVLDICYPTPLPQNPFPAPIATCPTRGKIALVSGLNLNNTSPDRLLRLEILREFLMGRINNKIDDISLIGRLLICGNSVDFDIKSVNKDELMISLTEFSKFLHNILPSISVDIMPGTNDPSDKSLPQQPFHKSLFDKSLESYFNGSNKEILNLVTNPYEFSYNGVDVLAVSGKNINDICKYVIPSNDNGESENKVEEGESNDFKDDIEHRLDLMECTMKWQNIAPTAPDTLWCYPYTDKDPFVLDKWPHVYIVANQPYFGTRVVEIGGKNIKIISVPEFSSTGMIILLDLETLEAETVKIDI
protein production: failed

MKSQISWKVGGQQGEGIESTGEIFATAMNRKGYFLYGYRHFSSRIKGGHTNNKIRVSKSPVHAISDDLDILIAFDQETIELNHHEMREDSIIIADSKAKPQKPENCVAQLIELPFTSTAKELGTALMKNMVAIGATSALMDLNTSTFETLIDNMFSKKGNKVVDMNIQALNMGYDLMKQQVTNVNGDFTLENGSGHPHLYMIGNDAIGLGAIAAGSRFMSAYPITPASEIMEYMIANLPKVDGTVVQTEDEIAAATMAIGANYAGVRGFTASAGPGLSLMMESIGLSGMTETPLVIINTQRGGPSTGLPTKQEQSDLMQMIYGTHGDIPKIVVAPTDAEDAFYLTMEAFNLAEEYQCPVILLSDLQLSLGKQTVKTLDYNKIDIRRGEIIQSDIERAEDDKAYFKRYALTASGVSPRPIPGVKGGIHHVTGVEHNEEGKPSEAPMNRQNQMEKRMRKTESLVINNPVLLNEHEDEADILYIGFISTKGAIGEGAERLERHGVKVNTMHIRQLHPFPKDIVQQAINKASKVIVAEHNYQGQLSSILKMNTQVNDKLVNQTKYDGKPFLPYEIEEKGLEIAKELKELV
protein production: failed

MPAFSLLPKPSALLPLLLAAAFLPPAFVHAEEEAAKDQPQAPVERPAVSERSQDEAKGLERQLPEDGQQILKAGDESFLTLWLPANTAEAEGVVILVPGDGESPDWPQAIGPLRRKLPDAGWQTLSLALPDPQSTAPVTRPAESAASASADKDASAADSASKPDVKGESGNAPAPESTAEAGSGEPAQSEDQAPPPAIDPVEQRKAHAERVMARLQASIDLALQHEPKSVVLLGHGTGAYWAARYLAEKEPAEIHNLLLVAAEVPRDFRPALEDMVPKLKLATGDFYYRDARADREAARLRMQAGKRQKHPAYVQIAMQALPADPKAEQEQLYRRIRGWLSLHLQADAQKPAE
protein production: failed

SPSKVQELSVYEINELDRHSPKILKNAFSLMFGLGDLVPFTNKLYTGDLKKRVGITAGLCVVIEHVPEKKGERFEATYSFYFGDYGHLSVQGPYLTYEDSFLAITGGAGIFEGAYGQVKLQQLVYPTKLFYTFYLKGLANDLPLELTGTPVPPSKDIEPAPEAKALEPSGVISNYTN
protein production: failed

DSLKAEVNTLFARFDEQPLAAASIAQVHTAALFDGREVIVKVTRPNIRTQILQDFEIISWLGQSLESRLEAARALHLSEIIQDYRQIILNELDLTLEADNTRRMRHYFTGSSMMYVPEVY
protein production: not failed

MRFTNTILMTTFTALLAVALVAGCASKKKDETDPFFSKWQSLASNSTGFSPPKVVRDVKPKTLLRQEEVTAKQEEQKRPLPQMPVTLKLHNVDVGVALRSLAAAANTSIIVSPGVKGTASINVNRVPWEDVFKGILASNALDFAWRGELIQVMTLADKKAEVERELLETQRMAQQLKGRKVGPLVTSVIEVRYAEAAELKKNLEGFLSKDEQNKPVGAVVVDTHTNSLIVQAVEDDLSKIITLVNNLDKPRAQILLKAHIVEATRDTARDLGIQWGGVGRSGNMGDGNRMWVTPGGSGPTKPTDPQAGGGVPVIPPGGLSGQGFGMNFPVNKAGKTAMGSLGLMFGTIGGNMLEVQLSALQDNGKLNILSSPSISTLDNQMAFTENGEKVPYVSTNAQGDREVKFEDAVLRLEITPHVIDESNLKLKVQVKKDEVDLTRTVEGNPFIIKKQTETTLIVQDGETVVISGLTKERSSTRRQGLPYLQDVEGIGALFGNDSKANKLEDVLIFITPAILPYREETSVN
protein production: failed

MSKRWLYSLQLIFFITLVFVLVTGCYSHPNQNIQSANSKPVTSECRIIKHPLGETCIPLHPQRIIAMDEDILEILVALDLKPIAVAINFDEWSSREKQLWQKAEGIDSIVIGNHGILNLEKMLLLKPDLILGLAESTDRKSYELFSQIAPTVTVDYAQTAWRDVLLRVGNIIGKTEQAQKLIAEFQQRIEKLRVIVKNKLGKTKISVVRVYNYFHKTIEFRSNFSFPGSLLVELGLSFPEKQNQIPTSPGFPFVFASLERLDLLDADVMFVTLDAGGEENFKKFQASPLWQKLKAVKNNCVYTVDSGYWIFGNIMSANAILDDLDKYLLQQCR
protein production: failed

MDTSLPSAILNNMVTATLILDDGLAIRYANPAAELLFSQSAKRIVEQSLSQLIQHASLDLALLTQPLQSGQSITDSDVTFVVDGRPLMLEVTVSPITWQRQLMLLVEMRKID
protein production: not failed

MACARAWRTMSPCGGKQVHPLQECGLCSAPAGVARTHARQGADPMLPELGTFLLVLALLVALVQAVVPLAGAQRGRSSWMAVARPAAMVQLALIASAFAVLTHAFLVQDFSVRYVAENSNSLLPMMYRYSAVWGAHEGSLLLWTLVLALWTGAVAIWSRQLPAHVIARVLGVMALVSIGFLAFLLFTSNPFARLFPVPLEGGDLNPLLQDPGLIVHPPMLYCGYVGFAVPFAFAIAALLEGRMDARWLRWTRPWTNVAWSMLTVGIALGSWWAYYELGWGGWWFWDPVENASFMPWLVGTALLHSQAVTEKRGSFASWTLLLAIAAFALSLLGTFLVRSGVLTSVHSFAADPSRGLFILVFLLLVVGGSLVLYALRAPRLSLVDDPRRAFAGSSRETLLLLNNLLLTCACAMVLLGTLYPLLADALGLGKLSVGPPYFGTLFVVLMAPLVALVPFGPLTRWQREQASRPLAMLAPWAGLALAAGVLAWFAAPQGQLKAAVGVAGAAWVLLGTARFLWTRRAAKGRKFTPEMLGMVLAHLGVAVFLSGALLVEGLSLQREVALAPGQQVQIGRYALHFDGLEELRGPNYVSDRANLQVLKDDAPVGVVHAEKRRYASGGQTLTEAAIRPGPFGDLYVALGEPLGNQAWAVRVHLKPFVRWIWLGALLMALGGLVTAADRRFRRSPEIQDG
protein production: failed

MIINITILEDNESDFITLSDSIKKWAANTGILINIIWLNSYKKFIKSLPTLKCDLFFSDIELNCNNSFTGIDACKQLRESGYTGIIIFLTAFKEYVFDGYDVQAFNYLLKPINYGTINNCLDKFIHLFSREFYYYHKGNDIISIPYNDIMYIEKNGHDVILHTTSNVFVERISLNEISKRLPVFFIRAHKSYIVNINKVLSLRINELFLPNNVTIPVSRSYLTNIKKKLLEIAR
protein production: failed

MSDKGTDTKDKEKKAGKKKTASDRIEVRQSGVHGKGVYAIGQIAEGERVIEYKGEHISWKEALKRHPHDPNDPNHTFYFSLDDGDVIDAKFGGNRARWINHACDPNCEAREKKGRVFIHALRDIEPGEELFYDYGLVIDARYTKKLKQEYECRCGSPKCRGTMLAPKDKK
protein production: failed
